2 molecules from patent US6942980 can be followed below.

Experiment [1] deals with Gal-4 AD-RAR-γ fusion protein (Gal-4 activation domain joined to RAR-γ, from pACT-RAR-γ) (yeast; human) (UniProt P13631). Description: cell-based or functional assay.
Experiment [2] concerns the target T1, bacterially expressed glutathione-S-transferase (GST)-RAR-γ fusion protein (human) (UniProt P13631).
T1 sequence (looked up): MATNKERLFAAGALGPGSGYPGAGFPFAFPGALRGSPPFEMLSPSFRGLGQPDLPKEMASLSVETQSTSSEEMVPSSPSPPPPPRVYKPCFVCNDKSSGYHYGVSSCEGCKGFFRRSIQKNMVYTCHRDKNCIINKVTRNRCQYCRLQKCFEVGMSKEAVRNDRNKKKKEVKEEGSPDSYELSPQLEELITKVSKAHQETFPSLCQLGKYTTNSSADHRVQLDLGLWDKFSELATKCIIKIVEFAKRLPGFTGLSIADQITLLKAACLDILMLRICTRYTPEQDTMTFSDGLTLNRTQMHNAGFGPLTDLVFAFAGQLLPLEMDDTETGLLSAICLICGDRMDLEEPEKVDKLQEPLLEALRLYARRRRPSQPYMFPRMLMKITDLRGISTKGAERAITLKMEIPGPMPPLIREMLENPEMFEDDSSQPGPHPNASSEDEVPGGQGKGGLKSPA
In words: GST pull-down: 35S-labeled N-CoR-C' on GST-RAR-γ beads, incubation 20 minutes at 30° C.; phosphoimager quantitation.

Experiment [3] concerns the target T1, bacterially expressed glutathione-S-transferase (GST)-RAR-γ fusion protein (human). Description: GST pull-down: 35S-labeled N-CoR-C' on GST-RAR-γ beads, incubation 20 minutes at 20° C.; phosphoimager quantitation.
For experiment [4] the target is unchanged. Description: GST pull-down: 35S-labeled N-CoR-C' on GST-RAR-γ beads, incubation 20 minutes at 37° C.; phosphoimager quantitation.

For the molecule “GAL-4 DBD-N-CoR fusion protein (GAL-4 DNA binding domain fused to the full length N-CoR polypeptide, from pAS-N-CoR) (from UniProt P04386 1-147; Q60974 1-2453)”, in experiment [1], the Units of β-galactosidase activity, yeast two-hybrid in Y190; 1 µM AGN 193109, Triplicate 1 is 5.91 units; the Units of β-galactosidase activity, yeast two-hybrid in Y190; 1 µM AGN 193109, Triplicate 2 worked out at 4.43 units; the Units of β-galactosidase activity, yeast two-hybrid in Y190; 1 µM AGN 193109, Triplicate 3 was determined as 4.15 units; the Units of β-galactosidase activity, yeast two-hybrid in Y190; 1 µM TTNPB, Triplicate 1 was found to be 2.26 units. Further, in experiment [1], the Units of β-galactosidase activity, yeast two-hybrid in Y190; 1 µM TTNPB, Triplicate 2 amounted to 1.83 units; the Units of β-galactosidase activity, yeast two-hybrid in Y190; 1 µM TTNPB, Triplicate 3 turned out to be 1.96 units; the Units of β-galactosidase activity, yeast two-hybrid in Y190; Control (DMSO), Triplicate 1 was determined as 2.18 units; the Units of β-galactosidase activity, yeast two-hybrid in Y190; Control (DMSO), Triplicate 2 worked out at 2.12 units. In experiment [1], this molecule registered a Units of β-galactosidase activity, yeast two-hybrid in Y190; Control (DMSO), Triplicate 3 of 1.69 units; a β-Galactosidase Activity (units), yeast two-hybrid in Y190; 1 µM AGN 194310 of 5.1 units; a β-Galactosidase Activity (units), yeast two-hybrid in Y190; Control (DMSO) of 0.82 units.

B1: [35S]-radiolabeled in vitro translated N-CoR-C' (C-terminus of N-CoR, amino acids 1629-2453) (protein, UniProt Q60974 1629-2453, looked up)
chain: MQVNLRPDVTRGLSPREQPLGLPYPATRGIIDLTNMPPTILVPHAGGTSTPPMDRITYIPGTQVTFPPRPYNAASLSPGHPTHLAAAASAEREREREREKERERERERERERERERIAAAPADLYLRPGSEQPGRPGSHGYVRSPSPSVRTQETILQQRPSVFQGTNGTSVITPLDPTAQLRIMPLPSGGPSISQGLPASRYNTAADALAALVDAAASAPQMDVSKTKESKHEAARLEENLRSRSAAVSEQQQLEQKNLEVEKRSVQCVCTSSALPSGKAQPHASVVYSEAGKDKGPPPKSRYEEELRTRGKTTITAANFIDVIITRQIASDKDARERGSQSSDSSSSLSSHRYETASDAIEVISPASSPAPPQEKPQAYQPDMVKANQAENESTRQYEGPLHHYRSQQESPSPQQQPPLPPSSQSEGMGQVPRTHRLITLADHICQIITQDFARNQVPSQASTSTFQTSPSALSSTPVRTKTSSRYSPESQSQTVLHPRPGPRVSPENLVDKSRGSRPGKSPERSHIPSEPYEPISPPQGPAVHEKQDSMLLLSQRGVDPAEQRSDSRSPGSISYLPSFFTKLESTSPMVKSKKQEIFRKLNSSGGGDSDMAAAQPGTEIFNLPAVTTSGAVSSRSHSFADPASNLGLEDIIRKALMGSFDDKVEDHGVVMSHPVGIMPGSASTSVVTSSEARRDEGEPSPHAGVCKPKLINKSNSRKSKSPIPGQSYLGTERPSSVSSVHSEGDYHRQTPGWAWEDRPSSTGSTQFPYNPLTIRMLSSTPPTQIACAPSAITQAAPHQQNRIWEREPAPLLSAQYETLSDSDD
modifications: 35S-methionine radiolabel
In experiment [2], B1 gave a fold decrease in N-CoR interaction with RAR (1 µM TTNPB against vehicle alone, 30° C.) of 4.5 fold and a fold increase in N-CoR interaction with RAR (1 µM AGN 193109 against vehicle alone, 30° C.) of 2.2 fold. In experiment [3], this molecule gave a fold decrease in N-CoR binding (1 µM TTNPB against vehicle alone, 20° C.) of 2.6 fold and a fold increase in N-CoR binding (1 µM AGN 193109 against vehicle alone, 20° C.) of 1.6 fold. In experiment [4], this molecule returned a fold increase in interaction between RAR and N-CoR (1 µM AGN 193109 against vehicle alone, 37° C.) of 20.5 fold.
